The record followed here is patent US20250101135A1 (Hoffmann-La Roche, published 2025).

Changes are numbered by the printed parent chain.

The chains are these.
B1: anti-CD19 clone 8B8 (parental) in P329GLALA human IgG1 format (antibody, V domains shown)
VH: EVQLQQSGPELVKPGASVKMACKASGYTFTDYIMHWVKQKTGQGLEWIGYINPYNDGSKYTEKFNGKATLTSDKSSITAYMELSSLTSEDSAVYYCARGTYYYGSALFDYWGQGTTLTVSS
VL: DAVMTQTPLSLPVSLGDQASISCRSSQSLENSNGNTYLNWYLQKPGQSPQLLIYRVSKRFSGVLDRFSGSGSGTDFTLKISRVEAEDLGVYFCLQLTHVPYTFGGGTKLEIKR
notes: also called Parental 8B8
B2: anti-CD19 clone 8B8-5D08 in P329GLALA human IgG1 format (antibody, V domains shown)
VH: QVQLVQSGAEVKKPGASVKVSCKASGYTFTDYIMHWVRQAPGQGLEWMGYINPYNDGSKYTEKFQGRVTMTSDTSISTAYMELSRLRSDDTAVYYCARGTYYYGSELFDYWGQGTTVTVSS
VL: DIVMTQTPLSLSVTPGQPASISCKSSQSLETSTGNTYLNWYLQKPGQSPQLLIYRVSKRFSGVPDRFSGSGSGTDFTLKISRVEAEDVGVYYCLQLTHEPYTFGQGTKLEIKR
B3: anti-CD19 clone 8B8-7H07 in P329GLALA human IgG1 format (antibody, V domains shown)
VH: B2 VH
VL: B2 VL with L96A, E99I
B4: anti-CD19 clone 8B8-2B03 in P329GLALA human IgG1 format (antibody, V domains shown)
VH: B2 VH with M34T, S105P, E106D
VL: B2 VL with E99V
notes: light chain holds an X
B5: anti-CD19 clone 8B8-5A07 in P329GLALA human IgG1 format (antibody, V domains shown)
VH: B2 VH with E106A
VL: B2 VL with L96P, T97G, E99Y, Y101G
B6: anti-CD19 clone 8B8-2B11 in P329GLALA human IgG1 format (antibody, V domains shown)
VH: B2 VH with S105P, E106Q
VL: B2 VL with N35T, T97L, H98E, E99D
B7: anti-CD19 clone 8B8-5B08 in P329GLALA human IgG1 format (antibody, V domains shown)
VH: B2 VH with S105P, E106Q
VL: B2 VL with T97D, H98S, E99Y, Y101N
B8: anti-CD19 clone 8B8-5H09 in P329GLALA human IgG1 format (antibody, V domains shown)
VH: B2 VH with E106A
VL: B2 VL with T31S, T97I, H98D, E99Y, Y101V
B9: parental anti-CD19 clone 8B8, Fab in bacterial supernatant (Fab, V domains shown)
VH: B2 VH with E106A
VL: DIVMTQTPLSLSVTPGQPASISCKSSQSLENPNGNTYLNWYLQKPGQSPQLLIYRVSKRFSGVPDRFSGSGSGTDFTLKISRVEAEDVGVYYCLQLTHVPYTFGQGTKLEIK
notes: conflicting; also called Parental 8B8; parental humanized clone 8B8
B10: anti-CD19 clone 8B8-5D08, Fab in bacterial supernatant (Fab, V domains shown)
VH: B2 VH
VL: B9 VL with N31T, P32S, N33T, V99E
B11: anti-CD19 clone 8B8-2B11, Fab in bacterial supernatant (Fab, V domains shown)
VH: B2 VH with S105P, E106Q
VL: B9 VL with N31T, P32S, N33T, N35T, T97L, H98E, V99D
B12: anti-CD19 clone 8B8-2B03, Fab in bacterial supernatant (Fab, V domains shown)
VH: B2 VH with M34T, S105P, E106D
VL: B9 VL with N31T, P32S, N33T
notes: printed VL holds an X

One test addresses T1, monomeric human CD19 antigen Fc(kih) fusion molecule (human, UniProt P0DOX5 223-449 = IgG part).
T1 construct: also called monomeric CD19-Fc; human CD19-Fc(kih)
As to the kind of experiment: SPR ProteOn XPR36, IgG from HEK supernatant captured via anti-human Fab, monomeric CD19-Fc analyte, 1:1 Langmuir.
Method: 7000 RU of polyclonal anti-human Fab antibody were immobilized on all 6 channels of a GLM chip by Amine coupling (NaAcetate pH4.5, 25 ul/min, 240 s) (vertical orientation). Each antibody-containing HEK supernatant was filtered, diluted with PBST (10 mM phosphate, 150 mM sodium chloride pH 7.4, 0.005% Tween 20) to a concentration of 10 ug/ml, and then injected at a for 360 s at 25 μl/minute to achieve immobilization levels between 500 and 800 response units (RU) in vertical orientation. Injection of monomeric CD19-Fc: For one-shot kinetics measurements, injection direction was changed to horizontal orientation, three-fold dilution series of purified monomeric CD19-Fc (varying concentration ranges between 150 and 6 nM) were injected simultaneously at 50 μl/min along separate channels 1-4, with association times of 180 s, and dissociation times of 300 s. […] Buffer (PBST) was injected along the sixth channel to provide an “in-line” blank for referencing. Regeneration was performed by two pulses of 10 mM glycine pH 1.5 and 50 mM NaOH for 30 s at 90 ul/min (vertical orientation). Association rate constants (kₒₙ) and dissociation rate constants (koff) were calculated using a simple one-to-one Langmuir binding model in ProteOn Manager v3.1 software by simultaneously fitting the association and dissociation sensorgrams. The equilibrium dissociation constant (KD) was calculated as the ratio koff/kₒₙ.
The Kd is the equilibrium constant for the complex coming apart. Higher therefore signals a looser complex. As a reminder, the koff is the first-order rate constant of dissociation. A high value points to a short-lived complex. As a reminder, the kon is the second-order rate constant of association. Low values mean slow association, high ones fast association. The molecule B1 gave a Kd of 2.36 nM, a koff of 0.000134 s⁻¹ and an on-rate (kon) of 56600 M⁻¹ s⁻¹.
The like results for B2 were, in that order, 0.951 nM, 8.44e-05 s⁻¹ and 88800 M⁻¹ s⁻¹.
The like results for B3 were, in that order, 0.747 nM, 5.57e-05 s⁻¹ and 74500 M⁻¹ s⁻¹.
B4: the Kd is 0.831 nM, the koff was determined as 5e-05 s⁻¹ and the kon worked out at 60200 M⁻¹ s⁻¹.
In the case of B5, the Kd stood at 0.44 nM, the koff came out at 3.07e-05 s⁻¹ and the kon amounted to 69800 M⁻¹ s⁻¹.
The like results for B6 were, in that order, 0.495 nM, 3.14e-05 s⁻¹ and 63400 M⁻¹ s⁻¹.
In the case of B7, the Kd turned out to be 0.772 nM, the koff came out at 5.26e-05 s⁻¹ and the kon came out at 68100 M⁻¹ s⁻¹.
On the same counts, the results for B8 are 0.189 nM, 1.5e-05 s⁻¹ and 79100 M⁻¹ s⁻¹.

A further test has as its target T1, monomeric human CD19 antigen Fc(kih) …. As to the kind of experiment: SPR ProteOn XPR36, Fab from bacterial supernatant captured via anti-human Fab, monomeric CD19-Fc analyte.
Method: In order to further characterize the ELISA-positive clones, the off-rate was measured by surface plasmon resonance and compared with the parental humanized clone 8B8.
For this experiment, 7000 RU of polyclonal anti-human Fab antibody were immobilized on all 6 channels of a GLM chip by Amine coupling (NaAcetate pH4.5, 25 μl/min, 240 s) (vertical orientation). […] Injection of monomeric CD19-Fc: For one-shot kinetics measurements, injection direction was changed to horizontal orientation, three-fold dilution series of purified monomeric CD19-Fc (varying concentration ranges between 150 and 6 nM) were injected simultaneously at 50/min along separate channels 1-4, with association times of 180 s, and dissociation times of 300 s. […] Regeneration was performed by two pulses of 10 mM glycine pH 1.5 and 50 mM NaOH for 30 s at 90 ul/min (horizontal orientation). Dissociation rate constants (koff) were calculated using a simple one-to-one Langmuir binding model in ProteOn Manager v3.1 software by simultaneously fitting the sensorgrams.
The molecule B9 came in with a koff of 0.000301 s⁻¹.
Still for that read-out and setting: the same measure for B10: 0.000195 s⁻¹; for B11: 4.37e-06 s⁻¹.
On the same count and under the same terms, the same measure for B12: 3.24e-05 s⁻¹.
